In patent US20070161783A1 (published 2007):

Key:
[1] = molecular target: T1, extracellular domain of Ep-CAM (UniProt P16422 24-265, DIGylated (sites not given)); experiment: AlphaScreen competition
T1 chain: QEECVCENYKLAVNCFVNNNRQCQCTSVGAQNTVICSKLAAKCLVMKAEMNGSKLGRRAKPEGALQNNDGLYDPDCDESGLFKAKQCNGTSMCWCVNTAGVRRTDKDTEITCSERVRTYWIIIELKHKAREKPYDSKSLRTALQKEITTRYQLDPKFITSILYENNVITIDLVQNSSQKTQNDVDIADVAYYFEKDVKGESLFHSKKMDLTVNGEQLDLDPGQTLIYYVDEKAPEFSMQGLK

FcγRIIIa (158V form) = FcγRIIIa (158V form) (human, UniProt P08637 17-208); experiment: AlphaScreen competition
Sequence of FcγRIIIa (158V form) (P08637 17-208 F176V): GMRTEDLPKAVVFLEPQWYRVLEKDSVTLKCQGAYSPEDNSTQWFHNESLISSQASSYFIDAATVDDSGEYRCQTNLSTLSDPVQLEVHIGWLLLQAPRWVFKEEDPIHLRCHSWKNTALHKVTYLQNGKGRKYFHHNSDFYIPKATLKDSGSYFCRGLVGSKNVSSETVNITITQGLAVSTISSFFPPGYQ

H3L4 = experiment: SPR
H4L1 = experiment: SPR
H2L3 = experiment: SPR
H6L4 = experiment: SPR
H2L1 = experiment: SPR
H2L4 = experiment: SPR
H4L3 = experiment: SPR
H1L1 = experiment: SPR
H1L4 = experiment: SPR
H6L3 = experiment: SPR
H3L3 = experiment: SPR
H4L4 = experiment: SPR
H3L2 = experiment: SPR
H1L3 = experiment: SPR
H3L1 = experiment: SPR
[2] = molecular target: H3.77_L3 S239D/I332E Hybrid
[3] = molecular target: H3.77_L3 I332E/H268E Hybrid
[4] = molecular target: H3.77_L3 S239D/H268E Hybrid
[5] = molecular target: H3.77_L3 S239D/I332E/A330Y Hybrid
[6] = molecular target: H3.77_L3 I332E/G236A Hybrid
[7] = molecular target: H3.77_L3 I332E/H268E/G236A Hybrid
[8] = molecular target: H3.77_L3 S239D/I332E/G236A Hybrid

B1: 17-1A H0 (antibody)
chain: QVQLQQSGAELVRPGTSVKVSCKASGYAFTNYLIEWVKQRPGQGLEWIGVINPGSGGTNYNEKFKGKATLTADKSSSTAYMQLSSLTSDDSAVYFCARDGPWFAYWGQGTLVTVSA
Which IC50 [1] does the source give for B1 here?
Its IC50 is 333 nM.

What about the IC50 (FcγRIIIa (158V form)) of the same binder?
The IC50 was 32.7 nM.

B2: EpCAM (Fc fusion)
chain: QEECVCENYKLAVNCFVNNNRQCQCTSVGAQNTVICSKLAAKCLVMKAEMNGSKLGRRAKPEGALQNNDGLYDPDCDESGLFKAKQCNGTSMCWCVNTAGVRRTDKDTEITCSERVRTYWIIIELKHKAREKPYDSKSLRTALQKEITTRYQLDPKFITSILYENNVITIDLVQNSSQKTQNDVDIADVAYYFEKDVKGESLFHSKKMDLTVNGEQLDLDPGQTLIYYVDEKAPEFSMQGLK
With B2 as the binder, how does the Kd (H3L4) read?
The Kd was 335 nM.

What about the Kd (H4L1) of the same binder?
Its Kd is 6600 nM.

What about the Kd (H2L3) of the same binder?
Its Kd is 63 nM.

What about the Kd (H6L4) of the same binder?
Its Kd is 5200 nM.

And the Kd (H2L1)?
Its Kd is 75.4 nM.

And the Kd (H2L4)?
Its Kd is 66.6 nM.

What about the Kd (H4L3) of the same binder?
The Kd was 1310 nM.

And the Kd (H1L1)?
Its Kd is 77.8 nM.

And the Kd (H1L4)?
Its Kd is 58.9 nM.

What about the Kd (H6L3) of the same binder?
The Kd was 4800 nM.

And the Kd (H3L3)?
Its Kd is 292 nM.

And the Kd (H4L4)?
The Kd was 3000 nM.

And the Kd (H3L2)?
The Kd was 615 nM.

What about the Kd (H1L3) of the same binder?
The Kd was 54.1 nM.

What about the Kd (H3L1) of the same binder?
The Kd was 385 nM.

B3: FcgRIIb (receptor)
chain: TPAAPPKAVLKLEPQWINVLQEDSVTLTCRGTHSPESDSIQWFHNGNLIPTHTQPSYRFKANNNDSGEYTCQTGQTSLSDPVHLTVLSEWLVLQTPHLEFQEGETIVLRCHSWKDKPLVKVTFFQNGKSKKFSRSDPNFSIPQANHSHSGDYHCTGNIGYTLYSSKPVTITVQAP
Which results are given for B3?
Kd [2]: 142 nM; Kd [3]: 117 nM; Kd [4]: 81.5 nM; Kd [5]: 144 nM; Kd [6]: 557 nM; Kd (H3.77_L3 WT Hybrid): 635 nM; Kd [7]: 154 nM; Kd [8]: 146 nM

B4: R131 FcgRIIa (receptor)
chain: QAAAPPKAVLKLEPPWINVLQEDSVTLTCQGARSPESDSIQWFHNGNLIPTHTQPSYRFKANNNDSGEYTCQTGQTSLSDPVHLTVLSEWLVLQTPHLEFQEGETIMLRCHSWKDKPLVKVTFFQNGKSQKFSRLDPTFSIPQANHSHSGDYHCTGNIGYTLFSSKPVTITVQVPSMGSSSPMG
For B4, which Kd [2] is on record?
Its Kd is 78.9 nM.

What about the Kd [3] of the same binder?
The Kd was 86.1 nM.

And the Kd [4]?
Its Kd is 42.7 nM.

What about the Kd [5] of the same binder?
Its Kd is 88.9 nM.

What about the Kd [6] of the same binder?
The Kd was 54.4 nM.

And the Kd (H3.77_L3 WT Hybrid)?
The Kd was 413 nM.

What about the Kd [8] of the same binder?
The Kd was 13.7 nM.
